Data reported in the supplement of paper PMC12783771.
± gives the standard deviation of the averaged measurements.

B1: library; numbered along this chain (parent)
chain: MNIQIGELAKRTACPVVTIRFYEQEGLLPPPGRSRGNFRLYGEEHVERLQFIRHCRSLDMPLSDVRTLLSYRKRPDQDCGEVNMLLDEHIRQVESRIGALLELKHHLVELREACSGARPAQSCGILQGLSDCVCDTRGTTAHPSD

Tests used:
[1] = variants of: B1; test: sfGFP reporter fluorescence (15 h) (µM FITC); higher = higher leak; settings: library round: Round 0; ligand: none
Method: (§1)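 Cell-free (BL21 Star DE3 extract, PANOx-SP) biosensing: 1 µL Echo-assembled reactions with linear PbrR variant templates (5 nM) and pPbrR-sfGFP reporter, with 1 µM Pb (lead chloride), 30 µM Zn (zinc acetate) or no ligand; endpoint sfGFP fluorescence after 15 h at 30 °C, calibrated as µM FITC. Round 0 library (alanine scan, site saturation, combinatorial) of PbrR from Cupriavidus metallidurans; 2 biological replicates.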

[2] = variants of: B1; test: sfGFP reporter fluorescence (15 h) (µM FITC); higher = stronger transcriptional activation; settings: library round: Round 0
Method: as §1

## MNRQIGELAKRTACPVVTIRFYEQEGLLPPPGRSRGNFRLYGEEHVERLQFIRHCRSLDMPLSDVRTLLSYRKRPDQDCGEVNMLLDEHIRQVESRIGALLELKHHLVELREACSGARPAQSCGILQGLSDCVCDTRGTTAHPSD [I3R]
[1]
  sfGFP reporter fluorescence: 0.0605
[2]; ligand: 1 µM Pb
  sfGFP reporter fluorescence: 0.0792
[2]; ligand: 30 µM Zn
  sfGFP reporter fluorescence: 0.376 ± 0.024

## MNEQIGELAKRTACPVVTIRFYEQEGLLPPPGRSRGNFRLYGEEHVERLQFIRHCRSLDMPLSDVRTLLSYRKRPDQDCGEVNMLLDEHIRQVESRIGALLELKHHLVELREACSGARPAQSCGILQGLSDCVCDTRGTTAHPSD [I3E]
[1]
  sfGFP reporter fluorescence: 0.061 ± 0.0013
[2]; ligand: 1 µM Pb
  sfGFP reporter fluorescence: 0.0601 ± 0.001
[2]; ligand: 30 µM Zn
  sfGFP reporter fluorescence: 0.101 ± 0.0013

## MNSQIGELAKRTACPVVTIRFYEQEGLLPPPGRSRGNFRLYGEEHVERLQFIRHCRSLDMPLSDVRTLLSYRKRPDQDCGEVNMLLDEHIRQVESRIGALLELKHHLVELREACSGARPAQSCGILQGLSDCVCDTRGTTAHPSD [I3S]
[1]
  sfGFP reporter fluorescence: 0.05864 ± 0.00052
[2]; ligand: 1 µM Pb
  sfGFP reporter fluorescence: 0.0605 ± 0.0036
[2]; ligand: 30 µM Zn
  sfGFP reporter fluorescence: 0.2084 ± 0.0013

## MNHQIGELAKRTACPVVTIRFYEQEGLLPPPGRSRGNFRLYGEEHVERLQFIRHCRSLDMPLSDVRTLLSYRKRPDQDCGEVNMLLDEHIRQVESRIGALLELKHHLVELREACSGARPAQSCGILQGLSDCVCDTRGTTAHPSD [I3H]
[1]
  sfGFP reporter fluorescence: 0.059 ± 0.001
[2]; ligand: 1 µM Pb
  sfGFP reporter fluorescence: 0.0707 ± 0.0021
[2]; ligand: 30 µM Zn
  sfGFP reporter fluorescence: 0.356 ± 0.01

## MNGQIGELAKRTACPVVTIRFYEQEGLLPPPGRSRGNFRLYGEEHVERLQFIRHCRSLDMPLSDVRTLLSYRKRPDQDCGEVNMLLDEHIRQVESRIGALLELKHHLVELREACSGARPAQSCGILQGLSDCVCDTRGTTAHPSD [I3G]
[1]
  sfGFP reporter fluorescence: 0.061 ± 0.0023
[2]; ligand: 1 µM Pb
  sfGFP reporter fluorescence: 0.0755 ± 0.0047
[2]; ligand: 30 µM Zn
  sfGFP reporter fluorescence: 0.1957 ± 0.001

## MNLQIGELAKRTACPVVTIRFYEQEGLLPPPGRSRGNFRLYGEEHVERLQFIRHCRSLDMPLSDVRTLLSYRKRPDQDCGEVNMLLDEHIRQVESRIGALLELKHHLVELREACSGARPAQSCGILQGLSDCVCDTRGTTAHPSD [I3L]
[1]
  sfGFP reporter fluorescence: 0.0568 ± 0.0057
[2]; ligand: 1 µM Pb
  sfGFP reporter fluorescence: 0.0722 ± 0.0042
[2]; ligand: 30 µM Zn
  sfGFP reporter fluorescence: 0.821 ± 0.0098

## MNFQIGELAKRTACPVVTIRFYEQEGLLPPPGRSRGNFRLYGEEHVERLQFIRHCRSLDMPLSDVRTLLSYRKRPDQDCGEVNMLLDEHIRQVESRIGALLELKHHLVELREACSGARPAQSCGILQGLSDCVCDTRGTTAHPSD [I3F]
[1]
  sfGFP reporter fluorescence: 0.05552 ± 0.00026
[2]; ligand: 1 µM Pb
  sfGFP reporter fluorescence: 0.0643 ± 0.0029
[2]; ligand: 30 µM Zn
  sfGFP reporter fluorescence: 0.587 ± 0.019

## MNPQIGELAKRTACPVVTIRFYEQEGLLPPPGRSRGNFRLYGEEHVERLQFIRHCRSLDMPLSDVRTLLSYRKRPDQDCGEVNMLLDEHIRQVESRIGALLELKHHLVELREACSGARPAQSCGILQGLSDCVCDTRGTTAHPSD [I3P]
[1]
  sfGFP reporter fluorescence: 0.0592 ± 0.0018
[2]; ligand: 1 µM Pb
  sfGFP reporter fluorescence: 0.0583 ± 0.0036
[2]; ligand: 30 µM Zn
  sfGFP reporter fluorescence: 0.0546 ± 0.0026

## MNKQIGELAKRTACPVVTIRFYEQEGLLPPPGRSRGNFRLYGEEHVERLQFIRHCRSLDMPLSDVRTLLSYRKRPDQDCGEVNMLLDEHIRQVESRIGALLELKHHLVELREACSGARPAQSCGILQGLSDCVCDTRGTTAHPSD [I3K]
[1]
  sfGFP reporter fluorescence: 0.0608 ± 0.001
[2]; ligand: 1 µM Pb
  sfGFP reporter fluorescence: 0.0652 ± 0.0057
[2]; ligand: 30 µM Zn
  sfGFP reporter fluorescence: 0.308 ± 0.008

## MNVQIGELAKRTACPVVTIRFYEQEGLLPPPGRSRGNFRLYGEEHVERLQFIRHCRSLDMPLSDVRTLLSYRKRPDQDCGEVNMLLDEHIRQVESRIGALLELKHHLVELREACSGARPAQSCGILQGLSDCVCDTRGTTAHPSD [I3V]
[1]
  sfGFP reporter fluorescence: 0.0619 ± 0.001
[2]; ligand: 1 µM Pb
  sfGFP reporter fluorescence: 0.124 ± 0.0044
[2]; ligand: 30 µM Zn
  sfGFP reporter fluorescence: 1.32 ± 0.025

## MNMQIGELAKRTACPVVTIRFYEQEGLLPPPGRSRGNFRLYGEEHVERLQFIRHCRSLDMPLSDVRTLLSYRKRPDQDCGEVNMLLDEHIRQVESRIGALLELKHHLVELREACSGARPAQSCGILQGLSDCVCDTRGTTAHPSD [I3M]
[1]
  sfGFP reporter fluorescence: 0.0641 ± 0.0015
[2]; ligand: 1 µM Pb
  sfGFP reporter fluorescence: 0.0768 ± 0.0018
[2]; ligand: 30 µM Zn
  sfGFP reporter fluorescence: 1.27 ± 0.15

## MNNQIGELAKRTACPVVTIRFYEQEGLLPPPGRSRGNFRLYGEEHVERLQFIRHCRSLDMPLSDVRTLLSYRKRPDQDCGEVNMLLDEHIRQVESRIGALLELKHHLVELREACSGARPAQSCGILQGLSDCVCDTRGTTAHPSD [I3N]
[1]
  sfGFP reporter fluorescence: 0.0599 ± 0.0013
[2]; ligand: 1 µM Pb
  sfGFP reporter fluorescence: 0.0579 ± 0.0021
[2]; ligand: 30 µM Zn
  sfGFP reporter fluorescence: 0.1142 ± 0.00026

## MNQQIGELAKRTACPVVTIRFYEQEGLLPPPGRSRGNFRLYGEEHVERLQFIRHCRSLDMPLSDVRTLLSYRKRPDQDCGEVNMLLDEHIRQVESRIGALLELKHHLVELREACSGARPAQSCGILQGLSDCVCDTRGTTAHPSD [I3Q]
[1]
  sfGFP reporter fluorescence: 0.0548 ± 0.0029
[2]; ligand: 1 µM Pb
  sfGFP reporter fluorescence: 0.0671 ± 0.0026
[2]; ligand: 30 µM Zn
  sfGFP reporter fluorescence: 0.336 ± 0.0075

## MNTQIGELAKRTACPVVTIRFYEQEGLLPPPGRSRGNFRLYGEEHVERLQFIRHCRSLDMPLSDVRTLLSYRKRPDQDCGEVNMLLDEHIRQVESRIGALLELKHHLVELREACSGARPAQSCGILQGLSDCVCDTRGTTAHPSD [I3T]
[1]
  sfGFP reporter fluorescence: 0.0597 ± 0.001
[2]; ligand: 1 µM Pb
  sfGFP reporter fluorescence: 0.0667 ± 0.0047
[2]; ligand: 30 µM Zn
  sfGFP reporter fluorescence: 0.331 ± 0.011
